Molecular target: human RhoA^F25N (residues 1–181) (human, UniProt P61586 1-181, F25N)
Assay: cell-based or functional assay

Chain of human RhoA^F25N (residues 1–181) (P61586 1-181 F25N): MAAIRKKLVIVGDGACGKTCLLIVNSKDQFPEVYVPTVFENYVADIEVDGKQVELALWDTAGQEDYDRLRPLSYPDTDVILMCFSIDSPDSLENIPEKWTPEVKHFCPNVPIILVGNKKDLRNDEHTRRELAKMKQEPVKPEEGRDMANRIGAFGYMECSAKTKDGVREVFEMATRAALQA

B1: PRG^4R: PRG^672–1081 with D706R, E708R, E710R, D712R (domain or fragment, human, UniProt O15085 672-1081, looked up)
chain: TPKMGRRSIESPSLGFCTDTLLPHLLEDDLGQLSRLRPRPRAQNWQHTVGKDVVAGLTQREIDRQEVINELFVTEASHLRTLRVLDLIFYQRMKKENLMPREELARLFPNLPELIEIHNSWCEAMKKLREEGPIIKEISDLMLARFDGPAREELQQVAAQFCSYQSIALELIKTKQRKESRFQLFMQEAESHPQCRRLQLRDLIISEMQRLTKYPLLLESIIKHTEGGTSEHEKLCRARDQCREILKYVNEAVKQTENRHRLEGYQKRLDATALERASNPLAAEFKSLDLTTRKMIHEGPLTWRISKDKTLDLHVLLLEDLLVLLQKQDEKLLLKCHSKTAVGSSDSKQTFSPVLKLNAVLIRSVATDKRAFFIICTSKLGPPQIYELVALTSSDKNTWMELLEEAVRNA
catalytic activity in the nucleotide exchange assay on RhoA (mant-GTP fluorescence): 3.3 fold over the isolated DH-PH tandem
